Reference: the supplement of paper PMC7125110
This sample holds only a part of the variants without activity.

B1: glmS ribozyme (parent)
chain: AUAAAAGCGCCAGAACUACAGAAAUGUAGUUGACGAGGAGGAGGUUUAUCGAAUUUUCGGCGGAUGCCUCCAAA

Legend:
Details in all cases: with glucosamine-6-phosphate
glucosamine-6-phosphate [1] = variants of: B1; assay: self-cleavage kobs at 40 uM GlcN6P; higher = faster cleavage; RNA array
Summary of the method: (§1)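 kcat and KM were obtained from weighted Michaelis–Menten fits across concentrations of kobs values. Those came from one- or two-exponential decay fits to per-tile medians normalised to baseline and to non-cleaving reference variants. The variants were barcoded ribozymes transcribed in situ by E. coli RNA polymerase on sequenced MiSeq chips and tracked through a hybridised Cy3 probe at 37 °C, with 40 μM to 10 mM glucosamine-6-phosphate in HEPES/KCl/Mg(OAc)2 buffer flowed in.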

glucosamine-6-phosphate [2] = variants of: B1; assay: self-cleavage kobs at 640 uM GlcN6P; higher = faster cleavage; RNA array
Summary of the method: as §1

glucosamine-6-phosphate [3] = variants of: B1; assay: self-cleavage kobs at 2500 uM GlcN6P; higher = faster cleavage; RNA array
Summary of the method: as §1

glucosamine-6-phosphate [4] = variants of: B1; assay: self-cleavage kobs at 10000 uM GlcN6P; higher = faster cleavage; RNA array
Summary of the method: as §1

glucosamine-6-phosphate [5] = variants of: B1; assay: self-cleavage kobs at 160 uM GlcN6P; higher = faster cleavage; RNA array
Summary of the method: as §1

AUAAAAGCGCCAGAACUACAGAAAUGUAGUUGAAGAGGAGGAGUUUUAUCCAAUUUUCGGCGGAUGCCUCCAAA
< 1e-05 s⁻¹: self-cleavage kobs at 40 uM GlcN6P (glucosamine-6-phosphate [1]) | self-cleavage kobs at 640 uM GlcN6P (glucosamine-6-phosphate [2]) | self-cleavage kobs at 2500 uM GlcN6P (glucosamine-6-phosphate [3]) | self-cleavage kobs at 10000 uM GlcN6P (glucosamine-6-phosphate [4])

AUAAAAGCGCCAGAACUACAGAAAUGUAGUUGAAGAGGGGGAGGUUUAUCGAAUUUUCGGCGGCUGCCUCCAAA
< 1e-05 s⁻¹: self-cleavage kobs at 40 uM GlcN6P (glucosamine-6-phosphate [1]) | self-cleavage kobs at 640 uM GlcN6P (glucosamine-6-phosphate [2]) | self-cleavage kobs at 2500 uM GlcN6P (glucosamine-6-phosphate [3]) | self-cleavage kobs at 10000 uM GlcN6P (glucosamine-6-phosphate [4])

AUAAAAGCGCCAGAACUACAGAAAUGUAGUUGAAGAGGAGGAGGUUUAUCGAAUUAUCGGCGGAUGCCUCCAAA
< 1e-05 s⁻¹: self-cleavage kobs at 40 uM GlcN6P (glucosamine-6-phosphate [1]) | self-cleavage kobs at 160 uM GlcN6P (glucosamine-6-phosphate [5]) | self-cleavage kobs at 640 uM GlcN6P (glucosamine-6-phosphate [2]) | self-cleavage kobs at 2500 uM GlcN6P (glucosamine-6-phosphate [3])

AUAAAAGCGCCAGAACUACAGAAAUGUAGUUGUCGAGGAGGAGGUUUACCGAAUUUUCGGCGGAUGCCUCCAAA
< 1e-05 s⁻¹: self-cleavage kobs at 40 uM GlcN6P (glucosamine-6-phosphate [1]) | self-cleavage kobs at 160 uM GlcN6P (glucosamine-6-phosphate [5]) | self-cleavage kobs at 640 uM GlcN6P (glucosamine-6-phosphate [2]) | self-cleavage kobs at 10000 uM GlcN6P (glucosamine-6-phosphate [4])

AUAAAAGCGCCAGAACUACAGAAAUGUAGUUGAAGAUGAGGAGUUUUAUCGAAUUUUCGGCGGAUGCCUCCAAA
< 1e-05 s⁻¹: self-cleavage kobs at 40 uM GlcN6P (glucosamine-6-phosphate [1])

AUAAAAGCGCCAGAACUACAGAAAUGUAGUUGAAGAGGAGGAGGUUUAUCGAAUUUUCGGCGGAUGCUUCCAAA
< 1e-05 s⁻¹: self-cleavage kobs at 40 uM GlcN6P (glucosamine-6-phosphate [1]) | self-cleavage kobs at 160 uM GlcN6P (glucosamine-6-phosphate [5]) | self-cleavage kobs at 640 uM GlcN6P (glucosamine-6-phosphate [2]) | self-cleavage kobs at 2500 uM GlcN6P (glucosamine-6-phosphate [3]) | self-cleavage kobs at 10000 uM GlcN6P (glucosamine-6-phosphate [4])

AUAAAAGCGCCAGAACUACAGAAAUGUAGUUGAAGAGGAGCAGGUUUAUCGAGAUGUCGGCGGAUGCCUCCAAA
< 1e-05 s⁻¹: self-cleavage kobs at 40 uM GlcN6P (glucosamine-6-phosphate [1]) | self-cleavage kobs at 10000 uM GlcN6P (glucosamine-6-phosphate [4])

AUAAAAGCGCCAGAACUACAGAAAUGUAGUUGAAGAGGAGGAGGUUUAUCGAAUUUUCGGCCGAUGCCUCCAAA
< 1e-05 s⁻¹: self-cleavage kobs at 40 uM GlcN6P (glucosamine-6-phosphate [1]) | self-cleavage kobs at 160 uM GlcN6P (glucosamine-6-phosphate [5]) | self-cleavage kobs at 640 uM GlcN6P (glucosamine-6-phosphate [2]) | self-cleavage kobs at 2500 uM GlcN6P (glucosamine-6-phosphate [3]) | self-cleavage kobs at 10000 uM GlcN6P (glucosamine-6-phosphate [4])

AUAAAAGCGCCAGAACUACAGAAAUGUAGUUGAAGACGAGGAGGUUUAUCGAAUUUUCGUCGGAUGCCUCCAAA
< 1e-05 s⁻¹: self-cleavage kobs at 40 uM GlcN6P (glucosamine-6-phosphate [1]) | self-cleavage kobs at 10000 uM GlcN6P (glucosamine-6-phosphate [4])

AUAAAAGCGCCAGAACUACAGAAAUGUAGUUGAAGGGGCGGAGGUUUAUCGAAUUUUCGGCGGAUGCCUCCAAA
< 1e-05 s⁻¹: self-cleavage kobs at 40 uM GlcN6P (glucosamine-6-phosphate [1]) | self-cleavage kobs at 2500 uM GlcN6P (glucosamine-6-phosphate [3]) | self-cleavage kobs at 10000 uM GlcN6P (glucosamine-6-phosphate [4])

AUAAAAGCGCCAGAACUACAGAAAUGUAGUUGAAGAGGAUGAGGUUUAUCGAAUUUUCGGCGGAUACCUCCAAA
< 1e-05 s⁻¹: self-cleavage kobs at 40 uM GlcN6P (glucosamine-6-phosphate [1]) | self-cleavage kobs at 160 uM GlcN6P (glucosamine-6-phosphate [5]) | self-cleavage kobs at 10000 uM GlcN6P (glucosamine-6-phosphate [4])

AUAAAAGCGCCAGAACUACAGAAAUGUAGUUGAAGAGGAGGAGGUUUAUCGGAUUUUCGGCGGAUGCCUCCAAA
< 1e-05 s⁻¹: self-cleavage kobs at 40 uM GlcN6P (glucosamine-6-phosphate [1]) | self-cleavage kobs at 160 uM GlcN6P (glucosamine-6-phosphate [5]) | self-cleavage kobs at 640 uM GlcN6P (glucosamine-6-phosphate [2]) | self-cleavage kobs at 2500 uM GlcN6P (glucosamine-6-phosphate [3]) | self-cleavage kobs at 10000 uM GlcN6P (glucosamine-6-phosphate [4])

AUAAAAGCGCCAGAACUACAGAAAUGUAGUUGAAGAGGAGGAGGUUUAUCGAAUUUUCGGUGGAUGUCUCCAAA
< 1e-05 s⁻¹: self-cleavage kobs at 40 uM GlcN6P (glucosamine-6-phosphate [1]) | self-cleavage kobs at 10000 uM GlcN6P (glucosamine-6-phosphate [4])

AUAAAAGCGCCAGAACUACAGAAAUGUAGUUGAAGAGGAGGAGGUUUAUCGACUUUUCGGCGGAUGCCUCCAAA
< 1e-05 s⁻¹: self-cleavage kobs at 40 uM GlcN6P (glucosamine-6-phosphate [1]) | self-cleavage kobs at 640 uM GlcN6P (glucosamine-6-phosphate [2]) | self-cleavage kobs at 2500 uM GlcN6P (glucosamine-6-phosphate [3]) | self-cleavage kobs at 10000 uM GlcN6P (glucosamine-6-phosphate [4])

AUAAAAGCGCCAGAACUACAGAAAUGUAGUUGAAGAGGAGGAGGUUUAUCGAAUUUUCGGCGGAUGCCUCCAAA
< 1e-05 s⁻¹: self-cleavage kobs at 40 uM GlcN6P (glucosamine-6-phosphate [1]) | self-cleavage kobs at 160 uM GlcN6P (glucosamine-6-phosphate [5]) | self-cleavage kobs at 640 uM GlcN6P (glucosamine-6-phosphate [2]) | self-cleavage kobs at 2500 uM GlcN6P (glucosamine-6-phosphate [3])

AUAAAAGCGCCAGAACUACAGAAAUGUAGUUGAGGAGGAGGAGGUUUAUCGAAUUUUCGGCGGAUGCCUCCAAA
< 1e-05 s⁻¹: self-cleavage kobs at 40 uM GlcN6P (glucosamine-6-phosphate [1]) | self-cleavage kobs at 160 uM GlcN6P (glucosamine-6-phosphate [5]) | self-cleavage kobs at 640 uM GlcN6P (glucosamine-6-phosphate [2]) | self-cleavage kobs at 2500 uM GlcN6P (glucosamine-6-phosphate [3]) | self-cleavage kobs at 10000 uM GlcN6P (glucosamine-6-phosphate [4])

AUAAAAGCGCCAGAACUACAGAAAUGUAGUUGAGGGAGAGGUGGUUUAUCCAAUUUUCGGCGGAUGUCUCCAAA
< 1e-05 s⁻¹: self-cleavage kobs at 40 uM GlcN6P (glucosamine-6-phosphate [1]) | self-cleavage kobs at 2500 uM GlcN6P (glucosamine-6-phosphate [3])

AUAAAAGCGCCAGAACUACAGAAAUGUAGUUGAAGAGGAGUAGGUUUAUCGAAUUUUCGGCAGAUGCCUCCAAA
< 1e-05 s⁻¹: self-cleavage kobs at 40 uM GlcN6P (glucosamine-6-phosphate [1]) | self-cleavage kobs at 10000 uM GlcN6P (glucosamine-6-phosphate [4])

AUAAAAGCGCCAGAACUACAGAAAUGUAGUUGAAGAGGAGGAGGUUUAUCGAAUUUUCGGCGUAUGCCUCCAAA
< 1e-05 s⁻¹: self-cleavage kobs at 40 uM GlcN6P (glucosamine-6-phosphate [1]) | self-cleavage kobs at 160 uM GlcN6P (glucosamine-6-phosphate [5]) | self-cleavage kobs at 640 uM GlcN6P (glucosamine-6-phosphate [2]) | self-cleavage kobs at 10000 uM GlcN6P (glucosamine-6-phosphate [4])

AUAAAAGCGCCAGAACUACAGAAAUGUAGUUGAAGAGGAGGAGGCUUAUCGAAUUUUCGGCGGAUGCCUCCAAA
< 1e-05 s⁻¹: self-cleavage kobs at 40 uM GlcN6P (glucosamine-6-phosphate [1]) | self-cleavage kobs at 160 uM GlcN6P (glucosamine-6-phosphate [5]) | self-cleavage kobs at 640 uM GlcN6P (glucosamine-6-phosphate [2]) | self-cleavage kobs at 2500 uM GlcN6P (glucosamine-6-phosphate [3]) | self-cleavage kobs at 10000 uM GlcN6P (glucosamine-6-phosphate [4])

AUAAAAGCGCCAGAACUACAGAAAUGUAGUUGAAUAAGAGGAGGUUUAACGAAUUCUCGGCGGAUGCCUCCAAA
< 1e-05 s⁻¹: self-cleavage kobs at 40 uM GlcN6P (glucosamine-6-phosphate [1]) | self-cleavage kobs at 640 uM GlcN6P (glucosamine-6-phosphate [2]) | self-cleavage kobs at 2500 uM GlcN6P (glucosamine-6-phosphate [3]) | self-cleavage kobs at 10000 uM GlcN6P (glucosamine-6-phosphate [4])
